Measurements as given in IntAct's records for PubMed 29433439.

B1: Phosphocholine transferase AnkX (Legionella pneumophila subsp. pneumophila), Q5ZXN6 (parent)
chain: MVKIMPNLPGLYFLQAYPSEEIWRLFVDGRFWSKENGWRGYESREPGCLNAALESLCSIALQVEKSGEEFELSVDLIKRIHKKCGKKVEELQEKNPGELRTDEPVSFGIPAGRASIKGIEEFLSLVFLTEGGAEFGPGKAGPFGPRFDKNYFKNLNPEQIPDLAKQIYFDMCKYGHSNTNHFYLAVMKNVDVYLEKITQSYNKEIKTAETLDEKLKIIVKHIRMYEVLHPFRDANGRTFVNNLLNILLMQQGLPPATFYEPNVFDLYSAEELVVVVKEAIFNTVEIIEQSKRKTPITLYGYHSSLEEQTKFRDMLDSPSYEKIKHMDFSDLNPEKLHLKTQKCLSSLNEQYPLHRGAIYLSDPGEIKLLLSNRNESQINQQIEQGAPPIYVGKTPAHLAVISGNMAMLDELIAKKADLSLQDYDGKTALHYAAECGNMQIMGKILKVVLSQEDAIKVLNIKDNHGKTAFHYAAEFGTPELISALTTTEVIQINEPDNSGSSAITLAYKNHKLKIFDELLNSGADISDELLDAIWARKDKETLGKIIAKNEKILLNKEAFRIAISLGSVSLVKKFLRAGVDIDIPLTKDKATPLMLSINSGNPKLVSYLLKKGANTRLTDTSGNSVLHYVFYSKAENREALANIITEKDKKLINQPNANGNPPLYNAVVVNDLKMATILLEMGARVDFEDRLGNNILHSAMRRCDLPIILDIVKKDSTLLHKRNSERRNPFHQALHEMHTFPSSKETEEIHFMNLSDLLLKEGVDLNKKDIKGKTILDIALSKQYFHLCVKLMKAGAHTNISSPSKFLKNSDANSILERPFKFKNDLKKELDNNPLIAMAQINDLYVQIKNNRIRTPTGYAPKEGVSFFKGKSNDAKAHDEVLSVLKELYDSKLTEMLGNLPGEGLEEIKRSQKFFDGELKLLIKNQDISRKVDKKSIQEAVGTSLKLKW
partner: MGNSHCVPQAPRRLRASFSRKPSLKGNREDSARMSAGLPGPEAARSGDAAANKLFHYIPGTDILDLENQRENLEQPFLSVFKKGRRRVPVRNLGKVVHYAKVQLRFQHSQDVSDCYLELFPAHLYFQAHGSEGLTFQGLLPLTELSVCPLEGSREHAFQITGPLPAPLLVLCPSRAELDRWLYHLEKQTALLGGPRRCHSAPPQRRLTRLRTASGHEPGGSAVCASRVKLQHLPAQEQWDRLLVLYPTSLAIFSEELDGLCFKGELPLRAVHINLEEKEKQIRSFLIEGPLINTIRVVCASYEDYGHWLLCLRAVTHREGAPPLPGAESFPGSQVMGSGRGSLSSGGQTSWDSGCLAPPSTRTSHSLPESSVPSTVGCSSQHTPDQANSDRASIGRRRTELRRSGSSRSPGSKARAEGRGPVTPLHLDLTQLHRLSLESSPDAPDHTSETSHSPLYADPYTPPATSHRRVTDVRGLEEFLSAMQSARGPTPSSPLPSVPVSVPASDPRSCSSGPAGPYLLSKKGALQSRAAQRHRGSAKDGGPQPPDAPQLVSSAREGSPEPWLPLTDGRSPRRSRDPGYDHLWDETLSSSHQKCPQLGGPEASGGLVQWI

Variants of: B1
Details: with pkhn1_human PLEKHN1, Q494U1
With H229A the “effect of a mutation on the interaction” value was “decreasing interaction”.
